# Laboratory results as given in patent publication US12312411 (Takeda / Millennium, dated 2025).
# Tests used:
# [1] = target: T1, human CD38 on human multiple myeloma MOLP-8 cells (human, UniProt P28907 1-300); assay: flow cytometry, IgG1 at 100 nM on MOLP-8 cells, MFI over secondary-only control
# [2] = target: T1, human CD38 on human multiple myeloma …; assay: flow cytometry titration of IgG1 on MOLP-8 cells, nonlinear fit
# [3] = target: T1, human CD38 on human multiple myeloma …; assay: cell-based or functional assay
# [4] = target: cynomolgus CD38 on cells expressing recombinant cynomolgus CD38 (cynomolgus, UniProt Q5VAN0 1-301)
# [5] = target: recombinant human CD38 (purified, plate-coated) (human, UniProt P28907 43-300); assay: ELISA, plate-coated recombinant CD38, scFv-SLTA fusion titrated
# [6] = target: recombinant cynomolgus monkey CD38 (purified, plate-coated) (cynomolgus, UniProt Q5VAN0 44-301); assay: ELISA, plate-coated recombinant cynomolgus CD38, scFv-SLTA fusion titrated
Binder,FOB (fold-over-background of MFI) [1] [fold over background],Kd [2] [nM],% ADCC (mean) [3] [%],% CDC (mean) [3] [%],FOB (fold-over-background of MFI) [4] [fold over background],Kd [5] [ng/mL],binding result [6]
"CD38TM5 formatted into human IgG1 (antibody, V domains shown) VH: EVQLLESGGGLVQPGGSLRLSCAASGFTFSDYYMNWIRQAPGKGLEWVSSISSSSSYIYYADSVKGRFTISRDNSKNTLYLQMNSLRAEDTAVYYCATEGPYYLYGFDIWGQGTLVTVSS VL: QSVLTQPPSASGTPGQRVTISCSGSSSNIGSNYVYWYQQLPGTAPKLLIYGNSNRPSGVPDRFSGSKSGTSASLAISGLRSEDEADYYCQSYDNTLSGVIFGGGTKLTVLG",550,34,35.2,4.7,104,,
"CD38TM2 formatted into human IgG1 (antibody, V domains shown) VH: EVQLLESGGGLVQPGGSLRLSCAASGFTFSSYWMHWVRQAPGKGLEWVSAISGSGGGTFYADSVKGRFTISRDNSKNTLYLQMNSLRAEDTAVYYCAREGETSFGLDVWGQGTLVTVSS VL: QSVLTQPPSASGTPGQRVTISCSGSSSNIGGNYVYWYQQLPGTAPKLLIYRNNQRPSGVPDRFSGSKSGTSASLAISGLRSEDEADYYCQSYDSSLSVSVFGGGTKLTVLG",,,,,272,,
CD38 targeting reference molecule #1 (CD38TR1) scFv fused to Shiga toxin A subunit (CD38TR1-SLTA) (scFv) MKEFTLDFSTAKTYVDSLNVIRSAIGTPLQTISSGGTSLLMIDSGSGDNLFAVDVRGIDPEEGRFNNLRLIVERNNLYVTGFVNRTNNVFYRFADFSHVTFPGTTAVTLSGDSSYTTLQRVAGISRTGMQINRHSLTTSYLDLMSHSGTSLTQSVARAMLRFVTVTAEALRFRQIQRGFRTTLDDLSGRSYVMTAEDVDLTLNWGRLSSVLPDYHGQDSVRVGRISFGSINAILGSVALILNCHHHASAVAAEFPKPSTPPGSSGGAPDIQMTQSPSSLSASVGDRVTITCKASEDIYNRLTWYQQKPGKAPKLLISGATSLETGVPSRFSGSGSGTDFTFTISSLQPEDIATYYCQQYWSNPYTFGQGTKVEIKGGGGSQVQLQESGPGLVRPSQTLSLTCTVSGFSLTSYGVHWVRQPPGRGLEWIGVMWRGGSTDYNAAFMSRLNITKDNSKNQVSLRLSSVTAADTAVYYCAKSMITTGFVMDSWGQGSLVTVSS,,,,,,7.7,no binding
"CD38TM6 formatted into human IgG1 (antibody, V domains shown) VH: EVQLLESGGGLVQPGGSLRLSCAASGFTFDDYGMTWVRQAPGKGLEWVSGINWNGGSTGYADSVKGRFTISRDNSKNTLYLQMNSLRAEDTAVYYCARGGLFHDSSGYYFGHWGQGTLVTVSS VL: QSVLTQPPSASGTPGQRVTISCSGSSSNIGNSYVSWYQQLPGTAPKLLIYRNNQRPSGVPDRFSGSKSGTSASLAISGLRSEDEADYYCSAWDDNLSVLFGGGTKLTVL",104,4.6,50.4,34.3,176,,
"CD38TM1 formatted into human IgG1 (antibody, V domains shown) VH: EVQLLESGGGLVQPGGSLRLSCAASGFTFSDYYMSWVRQAPGKGLEWVSAISGSGGSTYYADSVKGRFTISRDNSKNTLYLQMNSLRAEDTAVYYCAREHSNYFYGMDVWGQGTLVTVSS VL: QSVLTQPPSASGTPGQRVTISCSGSSSNIGSNYVYWYQQLPGTAPKLLIYGNSNRPSGVPDRFSGSKSGTSASLAISGLRSEDEADYYCQSYDSSLSGSGVFGGGTKLTVLG",,32,29,15,,,
"CD38TM3 formatted into human IgG1 (antibody, V domains shown) VH: QVQLVQSGAEVKKPGESLKISCKGSGYSFTSYWIGWVRQMPGKGLEWMGIIYPGDSDTRYSPSFQGQVTISADKSISTAYLQWSSLKASDTAMYYCARGPSTGFWSGNYFDYWGQGTLVTVSS VL: QTVVTQEPSLTVSPGETVTLTCASSTGAVTSGFYPNWFQQKPGQAPRALIYATNNKYSWTPARFSGSLLGDKAALTLSRVQPEDEADYYCLVYYDGAWVFGGGTKLTVLG",,,,,528,,
